Series [1] relates to tTALE-eGFP (truncated TALE, 7-mer TGTCTGT repeat domain, fused to eGFP) (artificial construct (from TALEN plasmid RHD_Exon4_TALEN_L)). Nature of the series: FRET. To be noted: FRET: TE pH 8.0, 100 nM dsDNA, 10-100 nM tTALE-eGFP for Kd; NaCl series 0-200 mM at 30 nM protein; excitation 488 nm, emission 631 nm; temperature not stated.
For series [2] the test system is unchanged. Nature of the series: single-molecule fluorescence (surface-immobilized DNA in flow cell). The settings on record: FRET: TE pH 8.0, 100 nM dsDNA, 10-100 nM tTALE-eGFP for Kd; NaCl series 0-200 mM at 30 nM protein; excitation 488 nm, emission 631 nm; temperature not stated.

TGTCTGTATG (double strand) [target DNA]: the Kd (as a rule, the constant that tells how readily two partners part at equilibrium) in series [1] was 0.0267 µM. In other words, the double-digit nanomolar range.

In turn, lambda DNA had a K half in series [2] of 22 nM.
